Measured values published in US20150105316A1 (TREVENA, published 2015).
Where no end group is shown, it is not given here. [ ]: non-standard residue; d: D form. The star is where a group is joined. Val(3-OH) = CC(C)(O)[C@H](N)C(=O)O; Tle = CC(C)(C)[C@H](N)C(=O)O; Ac6c = NC1(C(=O)O)CCCCC1; NHCH2tBu = CC(C)(C)CN*; Aib = CC(C)(N)C(=O)O; NHiPr = CC(C)N*; Sar = CNCC(=O)O

T1: human angiotensin 2 type 1 receptor (human, UniProt P30556 1-359)
T1 sequence (looked up): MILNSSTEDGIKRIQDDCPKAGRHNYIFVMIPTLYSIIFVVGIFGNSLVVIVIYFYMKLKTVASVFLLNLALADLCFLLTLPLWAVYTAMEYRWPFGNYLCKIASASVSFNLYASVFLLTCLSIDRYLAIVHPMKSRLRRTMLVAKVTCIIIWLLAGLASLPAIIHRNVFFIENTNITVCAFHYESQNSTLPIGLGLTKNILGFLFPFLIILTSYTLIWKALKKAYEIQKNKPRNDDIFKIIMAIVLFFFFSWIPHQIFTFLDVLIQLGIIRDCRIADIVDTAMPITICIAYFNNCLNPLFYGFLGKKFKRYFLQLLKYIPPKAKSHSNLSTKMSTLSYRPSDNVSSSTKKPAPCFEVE

T2: rat angiotensin 2 type 1 receptor (rat, UniProt P25095 1-359)
T2 sequence (looked up): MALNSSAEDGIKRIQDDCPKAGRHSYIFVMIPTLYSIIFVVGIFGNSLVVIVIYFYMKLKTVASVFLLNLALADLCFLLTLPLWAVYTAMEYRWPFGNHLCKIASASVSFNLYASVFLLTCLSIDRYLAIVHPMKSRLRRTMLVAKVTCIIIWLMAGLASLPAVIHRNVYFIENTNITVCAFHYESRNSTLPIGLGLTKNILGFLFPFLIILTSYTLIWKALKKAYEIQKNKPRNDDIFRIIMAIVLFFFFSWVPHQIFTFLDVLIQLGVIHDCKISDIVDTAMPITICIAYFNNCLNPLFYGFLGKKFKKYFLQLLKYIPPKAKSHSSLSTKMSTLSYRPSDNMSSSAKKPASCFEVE


How the values were obtained:
Assay in all cases: cell-based or functional assay
[1] = target: T1, human angiotensin 2 type 1 receptor
[2] = target: T2, rat angiotensin 2 type 1 receptor
[3] = target: T2, rat angiotensin 2 type 1 receptor; remark: listed apart in the source
[4] = target: T1, human angiotensin 2 type 1 receptor; remark: listed apart in the source

Row | Binder | beta-arrestin2 assay EC50 [1] | beta-arrestin2 assay Span [1] | beta-arrestin2 assay pEC50 [1] | beta-arrestin2 assay EC50 [2] | beta-arrestin2 assay Span [2] | beta-arrestin2 assay pEC50 [2] | IP1 G-protein assay EC50 [3] | IP1 G-protein assay Span [3] | IP1 G-protein assay pEC50 [3] | IP1 G-protein assay EC50 [4] | IP1 G-protein assay Span [4] | IP1 G-protein assay pEC50 [4]
1 | [Sar]RVYXHPT (not fully specified (residue 5); printed as Sar-Arg-Val-Tyr-AA01-His-Pro-Thr) [SEQ ID NO: 40 (Sar-Arg-Val-Tyr-AA01-His-Pro-Thr)] | > 3.2 nM | < 101 | < 8.5 | > 3.2 nM | < 105 | < 8.5 |  |  |  |  |  | 
2 | [Sar]RVY[Ac6c]HPG [SEQ ID NO: 32 (Sar-Arg-Val-Tyr-cyHex-His-Pro-Gly)] | > 3.2 nM | < 101 | < 8.5 | > 3.2 nM | < 105 | < 8.5 |  |  |  |  |  | 
3 | [Sar]RVY[Tle]HPT [SEQ ID NO: 30 (Sar-Arg-Val-Tyr-AA02-His-Pro-Thr)] | > 3.2 nM | < 101 | < 8.5 | > 3.2 nM | < 105 | < 8.5 |  |  |  |  |  | 
4 | [Sar]RVY[Ac6c]HPD [SEQ ID NO: 44 (Sar-Arg-Val-Tyr-cyHex-His-Pro-Asp)] | > 3.2 nM | < 101 | < 8.5 | > 3.2 nM | < 105 | < 8.5 | > 0.6 nM | < 104 | < 9.2 |  |  | 
5 | [Sar]RVY[Aib]HPV [SEQ ID NO: 33 (Sar-Arg-Val-Tyr-AA01-His-Pro-Val)] | > 3.2 nM | < 101 | < 8.5 | > 3.2 nM | < 105 | < 8.5 |  |  |  | > 1.3 nM | < 103 | < 9.2
6 | [Sar]RVY[Ac6c]HPN [SEQ ID NO: 36 (Sar-Arg-Val-Tyr-cyHex-His-Pro-Asn)] | > 3.2 nM | < 101 | < 8.5 | > 3.2 nM | < 105 | < 8.5 |  |  |  |  |  | 
7 | [Sar]RVY[Ac6c]HP[Val(3-OH)] [SEQ ID NO: 31 (Sar-Arg-Val-Tyr-cyHex-His-Pro-AA03)] | > 3.2 nM | < 101 | < 8.5 | > 3.2 nM | < 105 | < 8.5 |  |  |  |  |  | 
8 | [Sar]RVY[Ac6c]HPR [SEQ ID NO: 42 (Sar-Arg-Val-Tyr-cyHex-His-Pro-Arg)] | > 3.2 nM | < 101 | < 8.5 | > 3.2 nM | < 105 | < 8.5 |  |  |  | > 1.3 nM | < 103 | < 9.2
9 | [Sar]RVY[Ac6c]HPE [SEQ ID NO: 43 (Sar-Arg-Val-Tyr-cyHex-His-Pro-Glu)] | > 3.2 nM | < 101 | < 8.5 | > 3.2 nM | < 105 | < 8.5 |  |  |  |  |  | 
10 | [Sar]RVY[Ac6c]HPC [SEQ ID NO: 34 (Sar-Arg-Val-Tyr-cyHex-His-Pro-Cys)] | > 3.2 nM | < 101 | < 8.5 | > 3.2 nM | < 105 | < 8.5 |  |  |  |  |  | 
11 | [Sar]RVY[Ac6c]HP[Aib] [SEQ ID NO: 35 (Sar-Arg-Val-Tyr-cyHex-His-Pro-AA01)] | > 3.2 nM | < 101 | < 8.5 | > 3.2 nM | < 105 | < 8.5 |  |  |  |  |  | 
12 | [Sar]RVY[Ac6c]HPH [SEQ ID NO: 37 (Sar-Arg-Val-Tyr-cyHex-His-Pro-His)] | > 3.2 nM | < 101 | < 8.5 | > 3.2 nM | < 105 | < 8.5 | > 0.6 nM | < 104 | < 9.2 |  |  | 
13 | [Sar]RVYPHPA [SEQ ID NO: 1 (Sar-Arg-Val-Tyr-Pro-His-Pro-Ala)] | > 3.2 nM | < 101 | < 8.5 | > 3.2 nM | < 105 | < 8.5 | > 0.6 nM | < 104 | < 9.2 | > 10000 nM |  | > 9.2
14 | [Sar]RVY[Ac6c]HPV [SEQ ID NO: 13 (Sar-Arg-Val-Tyr-cyHex-His-Pro-Val)] |  |  |  | > 3.2 nM | < 105 | < 8.5 | > 0.6 nM |  | > 9.2 | > 1.3 nM |  | > 9.2
15 | [Sar]RVY[Ac6c]HP [SEQ ID NO: 41 (Sar-Arg-Val-Tyr-cyHex-His-Pro)] | > 3.2 nM | < 101 | < 8.5 | > 3.2 nM | < 105 | < 8.5 |  |  |  |  |  | 
16 | [Sar]RVY[Tle]HPV [SEQ ID NO: 29 (Sar-Arg-Val-Tyr-AA02-His-Pro-Val)] | > 3.2 nM | < 101 | < 8.5 | > 3.2 nM | < 105 | < 8.5 |  |  |  |  |  | 

Other lines, results leading:

Row | beta-arrestin2 assay EC50 [1] | beta-arrestin2 assay Span [1] | beta-arrestin2 assay pEC50 [1] | beta-arrestin2 assay EC50 [2] | beta-arrestin2 assay Span [2] | beta-arrestin2 assay pEC50 [2] | IP1 G-protein assay EC50 [3] | IP1 G-protein assay Span [3] | IP1 G-protein assay pEC50 [3] | IP1 G-protein assay EC50 [4] | IP1 G-protein assay Span [4] | IP1 G-protein assay pEC50 [4] | Binder
17 | > 3.2 nM | < 101 | < 8.5 | > 3.2 nM | < 105 | < 8.5 |  |  |  |  |  |  | [Sar]RV[dC]IHC[dA] (not fully specified; printed as Sar-Arg-Val-D-Cys-Ile-His-Cys-D-Ala; cysteine pairing not given here) [SEQ ID NO: 52 (Sar-Arg-Val-D-Cys-Ile-His-Cys-D-Ala)]
18 | > 3.2 nM | < 101 | < 8.5 |  |  |  |  |  |  |  |  |  | [Sar]RVY[Ac6c]HP-NHCH2tBu [SEQ ID NO: 47 (Sar-Arg-Val-Tyr-cyHex-His-Pro-NH-neopentyl)]
19 |  | < 101 |  |  | < 105 |  | > 0.6 nM | < 104 | < 9.2 |  |  |  | XRVYXHPA (not fully specified; X1 Sar; X5 NMeIle) [SEQ ID NO: 58 (Sar-Arg-Val-Tyr-NMeIle-His-Pro-Ala)]
20 | > 3.2 nM | < 101 | < 8.5 | > 3.2 nM | < 105 | < 8.5 |  |  |  | > 1.3 nM | < 103 | < 9.2 | [Sar]KVY[Ac6c]HPA [SEQ ID NO: 51 (Sar-Lys-Val-Tyr-cyHex-His-Pro-Ala)]
21 | > 3.2 nM | < 101 | < 8.5 | > 3.2 nM | < 105 | < 8.5 |  |  |  |  |  |  | [Sar]RVY[Ac6c]HPK [SEQ ID NO: 50 (Sar-Arg-Val-Tyr-cyHex-His-Pro-Lys)]
22 | > 3.2 nM | < 101 | < 8.5 | > 3.2 nM | < 105 | < 8.5 |  |  |  |  |  |  | [Sar]RVY[Ac6c]HP-NHEt [SEQ ID NO: 48 (Sar-Arg-Val-Tyr-cyHex-His-Pro-NH-ethyl)]
23 | > 3.2 nM | < 101 | < 8.5 | > 3.2 nM | < 105 | < 8.5 |  |  |  |  |  |  | [Sar]RVY[Ac6c]HP-NHMe [SEQ ID NO: 49 (Sar-Arg-Val-Tyr-cyHex-His-Pro-NH-methyl)]
24 | > 3.2 nM | < 101 | < 8.5 | > 3.2 nM | < 105 | < 8.5 |  |  |  | > 1.3 nM | < 103 | < 9.2 | [Sar]RVY[Ac6c]HP-NHiPr [SEQ ID NO: 46 (Sar-Arg-Val-Tyr-cyHex-His-Pro-NH-i-Pr)]
